According to the supplement of paper PMC10567573:

B1: PDZK1 (parent)
chain: RETASLKLLPHQPRIVEMKKGSNG
B2: DVL3 (parent)
chain: FCADNPSELPPPMERTGGIGDSRP
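Note: lentivirally expressed fusions sorted by FACS into six bins by GFP to DsRed ratio, PSI derived from sequencing read proportions per bin multiplied by bin number.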

Variants of: B1
Experiment: protein stability index of a GFP-peptide fusion (GPS, HEK-293T) (PSI 1-6); higher = more stable
Conditions: c terminus: a fixed tail appended
With RETASLKDLPHQPRIVEMKKGSNG [L8D] the protein stability index was 3.4. Work on RETASLKPLPHQPRIVEMKKGSNG [L8P] yielded a protein stability index of 4.25. Work on RETASLKALPHQPRIVEMKKGSNG [L8A] yielded a protein stability index of 3.56. Work on RETASLKHLPHQPRIVEMKKGSNG [L8H] yielded a protein stability index of 2.81. With RETASLKVLPHQPRIVEMKKGSNG [L8V] the protein stability index was 3.92. For RETASLKRLPHQPRIVEMKKGSNG [L8R], the protein stability index was 3.89. With RETASLKMLPHQPRIVEMKKGSNG [L8M] the protein stability index was 2.75. With RETASLKYLPHQPRIVEMKKGSNG [L8Y] the protein stability index was 3.17. RETASLKNLPHQPRIVEMKKGSNG [L8N] showed a protein stability index of 2.96. Variant RETASLKSLPHQPRIVEMKKGSNG [L8S] has a protein stability index of 3.7. In the case of RETASLKCLPHQPRIVEMKKGSNG [L8C], the protein stability index is reported as 3.38. Variant RETASLCLLPHQPRIVEMKKGSNG [K7C] has a protein stability index of 3.89. RETASLRLLPHQPRIVEMKKGSNG [K7R] gave a protein stability index of 4.05. Variant RETASLLLLPHQPRIVEMKKGSNG [K7L] has a protein stability index of 3.98. In the case of RETASLALLPHQPRIVEMKKGSNG [K7A], the protein stability index is reported as 4.19. With RETASLILLPHQPRIVEMKKGSNG [K7I] the protein stability index was 3.68. In the case of RETASLMLLPHQPRIVEMKKGSNG [K7M], the protein stability index is reported as 3.9. For RETASLTLLPHQPRIVEMKKGSNG [K7T], the protein stability index was 4.66. With RETASLWLLPHQPRIVEMKKGSNG [K7W] the protein stability index was 2.72. Work on RETASLYLLPHQPRIVEMKKGSNG [K7Y] yielded a protein stability index of 3.4. In the case of RETASLVLLPHQPRIVEMKKGSNG [K7V], the protein stability index is reported as 3.95. With RETASLNLLPHQPRIVEMKKGSNG [K7N] the protein stability index was 4.86. With RETASLQLLPHQPRIVEMKKGSNG [K7Q] the protein stability index was 4.74. RETASLGLLPHQPRIVEMKKGSNG [K7G] showed a protein stability index of 4.32. For RETASLDLLPHQPRIVEMKKGSNG [K7D], the protein stability index was 4.97. RETASLSLLPHQPRIVEMKKGSNG [K7S] showed a protein stability index of 4.29. RETASLPLLPHQPRIVEMKKGSNG [K7P] showed a protein stability index of 4.67. Work on RETASLFLLPHQPRIVEMKKGSNG [K7F] yielded a protein stability index of 3.07. RETASLKLFPHQPRIVEMKKGSNG [L9F] showed a protein stability index of 3.26. Work on RETASLKLYPHQPRIVEMKKGSNG [L9Y] yielded a protein stability index of 3. RETASLKLTPHQPRIVEMKKGSNG [L9T] showed a protein stability index of 3.61. In the case of RETASLKLVPHQPRIVEMKKGSNG [L9V], the protein stability index is reported as 3.36. With RETASLKLEPHQPRIVEMKKGSNG [L9E] the protein stability index was 3.11. RETASLKLAPHQPRIVEMKKGSNG [L9A] gave a protein stability index of 3.39. With RETASLKLKPHQPRIVEMKKGSNG [L9K] the protein stability index was 3.99. Variant RETASLKLQPHQPRIVEMKKGSNG [L9Q] has a protein stability index of 3.5. For RETASLKLNPHQPRIVEMKKGSNG [L9N], the protein stability index was 3.79. RETASLKLMPHQPRIVEMKKGSNG [L9M] showed a protein stability index of 3.02. Work on RETASLKLSPHQPRIVEMKKGSNG [L9S] yielded a protein stability index of 3.26. With RETASLKLGPHQPRIVEMKKGSNG [L9G] the protein stability index was 4.12. RETASLKLRPHQPRIVEMKKGSNG [L9R] showed a protein stability index of 3.63. RETASLKLHPHQPRIVEMKKGSNG [L9H] showed a protein stability index of 3.42. Variant RETASLKLCPHQPRIVEMKKGSNG [L9C] has a protein stability index of 3.75. Work on RETASLKLDPHQPRIVEMKKGSNG [L9D] yielded a protein stability index of 3.33. Variant RETASLKLPPHQPRIVEMKKGSNG [L9P] has a protein stability index of 3. With RETASLKLWPHQPRIVEMKKGSNG [L9W] the protein stability index was 2.76. For RETASLKLLPFQPRIVEMKKGSNG [H11F], the protein stability index was 3.27. RETASLKLLPGQPRIVEMKKGSNG [H11G] showed a protein stability index of 3.38. Work on RETASLKLLPAQPRIVEMKKGSNG [H11A] yielded a protein stability index of 2.57. Variant RETASLKLLPMQPRIVEMKKGSNG [H11M] has a protein stability index of 2.75. RETASLKLLPEQPRIVEMKKGSNG [H11E] gave a protein stability index of 3.08. RETASLKLLPDQPRIVEMKKGSNG [H11D] gave a protein stability index of 2.35. Variant RETASLKLLPCQPRIVEMKKGSNG [H11C] has a protein stability index of 3.47. With RETASLKLLPIQPRIVEMKKGSNG [H11I] the protein stability index was 3.59. RETASLKLLPLQPRIVEMKKGSNG [H11L] showed a protein stability index of 3.14. RETASLKLLPKQPRIVEMKKGSNG [H11K] gave a protein stability index of 3.53. Work on RETAQLKLLPHQPRIVEMKKGSNG [S5Q] yielded a protein stability index of 3.44. With RETAILKLLPHQPRIVEMKKGSNG [S5I] the protein stability index was 2.82. Variant RETAELKLLPHQPRIVEMKKGSNG [S5E] has a protein stability index of 3.61. RETAVLKLLPHQPRIVEMKKGSNG [S5V] showed a protein stability index of 3.32. For RETACLKLLPHQPRIVEMKKGSNG [S5C], the protein stability index was 3.2. RETALLKLLPHQPRIVEMKKGSNG [S5L] showed a protein stability index of 3.73. In the case of RETAKLKLLPHQPRIVEMKKGSNG [S5K], the protein stability index is reported as 2.67. Work on RETARLKLLPHQPRIVEMKKGSNG [S5R] yielded a protein stability index of 3.38. RETADLKLLPHQPRIVEMKKGSNG [S5D] showed a protein stability index of 3.77. In the case of RETAYLKLLPHQPRIVEMKKGSNG [S5Y], the protein stability index is reported as 2.47. In the case of RETAWLKLLPHQPRIVEMKKGSNG [S5W], the protein stability index is reported as 2.36. Variant RETAHLKLLPHQPRIVEMKKGSNG [S5H] has a protein stability index of 2.98. For RETAFLKLLPHQPRIVEMKKGSNG [S5F], the protein stability index was 1.88. Work on RETATLKLLPHQPRIVEMKKGSNG [S5T] yielded a protein stability index of 3.39. RETANLKLLPHQPRIVEMKKGSNG [S5N] gave a protein stability index of 2.93. With RETAPLKLLPHQPRIVEMKKGSNG [S5P] the protein stability index was 3. Work on RETAGLKLLPHQPRIVEMKKGSNG [S5G] yielded a protein stability index of 3.26. Work on RETASLKLLSHQPRIVEMKKGSNG [P10S] yielded a protein stability index of 3.48. Variant RETASLKLLYHQPRIVEMKKGSNG [P10Y] has a protein stability index of 2.99. RETASLKLLQHQPRIVEMKKGSNG [P10Q] gave a protein stability index of 3.02. In the case of RETASLKLLMHQPRIVEMKKGSNG [P10M], the protein stability index is reported as 2.89. Work on RETASLKLLDHQPRIVEMKKGSNG [P10D] yielded a protein stability index of 3.21. With RETASLKLLTHQPRIVEMKKGSNG [P10T] the protein stability index was 2.98. With RETASLKLLFHQPRIVEMKKGSNG [P10F] the protein stability index was 2.08. RETASLKLLGHQPRIVEMKKGSNG [P10G] showed a protein stability index of 3.38. With RETASLKLLKHQPRIVEMKKGSNG [P10K] the protein stability index was 3.62. Work on RETASLKLLEHQPRIVEMKKGSNG [P10E] yielded a protein stability index of 3.14. In the case of RETASLKLLLHQPRIVEMKKGSNG [P10L], the protein stability index is reported as 2.88. RETASLKLLHHQPRIVEMKKGSNG [P10H] showed a protein stability index of 2.54. Work on RETASLKLLVHQPRIVEMKKGSNG [P10V] yielded a protein stability index of 2.76. With RETASLKLLRHQPRIVEMKKGSNG [P10R] the protein stability index was 3.56. RETASLKLLAHQPRIVEMKKGSNG [P10A] gave a protein stability index of 3.5. With RETASLKLLWHQPRIVEMKKGSNG [P10W] the protein stability index was 2.82. Variant RETASLKLLIHQPRIVEMKKGSNG [P10I] has a protein stability index of 2.43.

Variants of: B2
Experiment: as above
Conditions: c terminus: a fixed tail appended
Variant FCADNPSELPPPMERTGGIGDSRY [P24Y] has a protein stability index of 3.6. FCADNPSELPPPMERTGGIGDSRW [P24W] showed a protein stability index of 3.23. Work on FCADNPSELPPPMERTGGIGDSRV [P24V] yielded a protein stability index of 4.55. Work on FCADNPSELPPPMERTGGIGDSRT [P24T] yielded a protein stability index of 4.12.
